Among the data in patent publication US20110263459, “DIRECT SELECTION OF STRUCTURALLY DEFINED APTAMERS” (published 2011) are binding signal (fold of GUG control), binding result and Kd values, retold here.

For series [1], the target named is HIV-1 nucleocapsid protein NCp7 (HIV-1) (UniProt P03349). As to conditions: Cy3-NCp7 microarray; 3.5x background (AUA).
The target of series [2] is T1, HIV-1 nucleocapsid protein NCp7 (HIV-1, UniProt P03349 P03349:380-434). Nature of the series: multiple NCp7 bound per TBA in Trp37 titration; positive on chip. As to conditions: tags: unlabelled for Trp titration; Cy3/Dylight-labelled for chips; made in house, >95% pure; G4.
Series [3] addresses T1, HIV-1 nucleocapsid protein NCp7. Nature of the series: Trp37 fluorescence quenching, PBS, 5 mM MgCl2, 25 C; negative on chip. As to conditions: tags: unlabelled for Trp titration; Cy3/Dylight-labelled for chips; made in house, >95% pure; hairpin.
For series [4] the target is unchanged. Nature of the series: Trp37 fluorescence quenching, PBS pH 7.4, 0.1% Tween-20, 5 mM MgCl2, 25 C; 1:1. The following applies: tags: unlabelled for Trp titration; Cy3/Dylight-labelled for chips; made in house, >95% pure; hairpin.

In turn, TGTNNN [N6-56(64) pool] returned a binding signal (fold of GUG control) in series [1] of 1.5.

B1: control 33 (TBA) (structured_DNA)
DNA: GGTTGGTGTGGTTGG
In the case of B1, the binding result in series [2] is “binds”.

B2: A control (SL3-AUA) (ssRNA)
RNA: GGACUAGCGAUAGCUAGUCC
The Kd is the equilibrium constant for the complex coming apart. Molecule B2 returned a Kd in series [3] of 200 nM.

B3: G control (SL3-GUG) (ssRNA)
RNA: GGACUAGCGGUGGCUAGUCC
In turn, B3 yielded a Kd in series [4] of 10 nM.
